From patent US20050118674A1, “Engineering of Controlled Deamidation Rates in Peptides, Proteins, and Similar Structures” (priority 2003, published 2005)
Where no end group is shown, it is not given here.

Assay: First-order nonenzymatic deamidation of pentapeptides in Tris buffer
Format: physicochemical
Details: pH 7.4, 37.0° C., 0.15 M Tris HCl; Asn pentapeptides
Summary of the method: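 Pentapeptides containing Asn or Gln in varied flanking sequences incubated at 37° C., pH 7.4, 0.15 M Tris buffer; first-order deamidation rates measured. Some Asn values estimated from remaining data; many Gln values derived from surface fitting rather than measured.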

Substance | First-Order Deamidation Halftimes of GlyXxxAsnYyyGly
GlyGluAsnLeuGly (GENLG; printed: GlyGluAsnLeuGly) | 130 days
GlyTrpAsnTrpGly (GWNWG; printed: GlyTrpAsnTrpGly) | 135 days
GlyHisAsnArgGly (GHNRG; printed: GlyHisAsnArgGly) | 48.9 days
GlySerAsnGluGly (GSNEG; printed: GlySerAsnGluGly) | 59.7 days
GlyThrAsnAmCysGly | 34.4 days
GlyAmCysAsnArgGly (CNRG; not fully specified (N-terminus); printed as GlyAmCysAsnArgGly) | 58.8 days
GlyHisAsnAlaGly (GHNAG; printed: GlyHisAsnAlaGly) | 24.6 days
GlyValAsnValGly (GVNVG; printed: GlyValAsnValGly) | 291 days
GlyAlaAsnTrpGly (GANWG; printed: GlyAlaAsnTrpGly) | 130 days
GlyLeuAsnCysGly (GLNCG; printed: GlyLeuAsnCysGly) | 53.5 days
GlyIleAsnIleGly (GINIG; printed: GlyIleAsnIleGly) | 384 days
GlyLeuAsnGlyGly (GLNGG; printed: GlyLeuAsnGlyGly) | 1.08 days
GlyGluAsnGlyGly (GENGG; printed: GlyGluAsnGlyGly) | 1.45 days
GlyAlaAsnGlyGly (GANGG; printed: GlyAlaAsnGlyGly) | 1.05 days
GlyValAsnIleGly (GVNIG; printed: GlyValAsnIleGly) | 366 days
GlyArgAsnPheGly (GRNFG; printed: GlyArgAsnPheGly) | 68.3 days

Substance | First-Order Deamidation Halftimes of GlyXxxAsnYyyGly
GlyLeuAsnSerGly (GLNSG; printed: GlyLeuAsnSerGly) | 16.7 days
GlyTyrAsnSerGly (GYNSG; printed: GlyTyrAsnSerGly) | 11.9 days
GlyArgAsnSerGly (GRNSG; printed: GlyArgAsnSerGly) | 14.3 days
GlyPheAsnTyrGly (GFNYG; printed: GlyPheAsnTyrGly) | 75.1 days
GlySerAsnHisGly (GSNHG; printed: GlySerAsnHisGly) | 9.0 days
GlyTyrAsnAlaGly (GYNAG; printed: GlyTyrAsnAlaGly) | 24.3 days
GlyAmCysAsnIleGly (CNIG; not fully specified (N-terminus); printed as GlyAmCysAsnIleGly) | 250 days
GlySerAsnPheGly (GSNFG; printed: GlySerAsnPheGly) | 52.2 days
GlyPheAsnMetGly (GFNMG; printed: GlyPheAsnMetGly) | 58.6 days
GlyIleAsnGlyGly (GINGG; printed: GlyIleAsnGlyGly) | 1.26 days
GlyArgAsnArgGly (GRNRG; printed: GlyArgAsnArgGly) | 67.4 days
GlyMetAsnLeuGly (GMNLG; printed: GlyMetAsnLeuGly) | 113 days
GlyThrAsnAspGly (GTNDG; printed: GlyThrAsnAspGly) | 27.9 days
GlyAlaAsnTyrGly (GANYG; printed: GlyAlaAsnTyrGly) | 73.9 days
GlyGluAsnTyrGly (GENYG; printed: GlyGluAsnTyrGly) | 94.5 days

Same assay, conditions: pH 7.4, 37.0 ° C., 0.15 M Tris HCl; Gln pentapeptides; 52 values measured, rest derived from surface fitting

Substance | First-Order Deamidation Halftimes of GlyXxxGlnYyyGly
GlyTyrGlnSerGly (GYQSG; printed: GlyTyrGlnSerGly) | 6400 days
GlyLeuGlnCysGly (GLQCG; printed: GlyLeuGlnCysGly) | 2000 days
GlyHisGlnAspGly (GHQDG; printed: GlyHisGlnAspGly) | 5600 days
GlyLysGlnThrGly (GKQTG; printed: GlyLysGlnThrGly) | 4100 days
GlyIleGlnIleGly (GIQIG; printed: GlyIleGlnIleGly) | 6500 days
GlyHisGlnLysGly (GHQKG; printed: GlyHisGlnLysGly) | 4000 days
GlyArgGlnTrpGly (GRQWG; printed: GlyArgGlnTrpGly) | 11000 days
GlyGluGlnValGly (GEQVG; printed: GlyGluGlnValGly) | 6400 days
GlyLeuGlnTrpGly (GLQWG; printed: GlyLeuGlnTrpGly) | 16000 days
GlyGluGlnGlyGly (GEQGG; printed: GlyGluGlnGlyGly) | 750 days
GlyCysGlnPheGly (GCQFG; printed: GlyCysGlnPheGly) | 6500 days
GlyHisGlnHisGly (GHQHG; printed: GlyHisGlnHisGly) | 7200 days
GlyProGlnSerGly (GPQSG; printed: GlyProGlnSerGly) | 4600 days
GlyTrpGlnLeuGly (GWQLG; printed: GlyTrpGlnLeuGly) | 7900 days
GlyTrpGlnPheGly (GWQFG; printed: GlyTrpGlnPheGly) | 8600 days
GlyPheGlnLeuGly (GFQLG; printed: GlyPheGlnLeuGly) | 6400 days
GlyArgGlnTyrGly (GRQYG; printed: GlyArgGlnTyrGly) | 9200 days
GlyLeuGlnArgGly (GLQRG; printed: GlyLeuGlnArgGly) | 7200 days
GlyPheGlnPheGly (GFQFG; printed: GlyPheGlnPheGly) | 8200 days
GlyCysGlnAspGly (GCQDG; printed: GlyCysGlnAspGly) | 6100 days

Substance | First-Order Deamidation Halftimes of GlyXxxGlnYyyGly
GlyHisGlnProGly (GHQPG; printed: GlyHisGlnProGly) | 11000 days
GlyAspGlnGlyGly (GDQGG; printed: GlyAspGlnGlyGly) | 800 days
GlyAlaGlnValGly (GAQVG; printed: GlyAlaGlnValGly) | 6400 days
GlyCysGlnLysGly (GCQKG; printed: GlyCysGlnLysGly) | 4400 days
GlyTyrGlnTyrGly (GYQYG; printed: GlyTyrGlnTyrGly) | 14000 days
GlySerGlnGluGly (GSQEG; printed: GlySerGlnGluGly) | 8100 days
GlyTyrGlnPheGly (GYQFG; printed: GlyTyrGlnPheGly) | 8700 days
GlyProGlnHisGly (GPQHG; printed: GlyProGlnHisGly) | 5200 days
GlyIleGlnTyrGly (GIQYG; printed: GlyIleGlnTyrGly) | 12000 days
GlyGlyGlnTyrGly (GGQYG; printed: GlyGlyGlnTyrGly) | 12000 days
GlyAlaGlnLysGly (GAQKG; printed: GlyAlaGlnLysGly) | 5700 days
GlyPheGlnTyrGly (GFQYG; printed: GlyPheGlnTyrGly) | 12000 days
GlyHisGlnCysGly (GHQCG; printed: GlyHisGlnCysGly) | 2200 days
GlyIleGlnTrpGly (GIQWG; printed: GlyIleGlnTrpGly) | 16000 days
GlyThrGlnLysGly (GTQKG; printed: GlyThrGlnLysGly) | 4800 days
GlyMetGlnThrGly (GMQTG; printed: GlyMetGlnThrGly) | 3800 days
GlyCysGlnCysGly (GCQCG; printed: GlyCysGlnCysGly) | 800 days
GlyThrGlnIleGly (GTQIG; printed: GlyThrGlnIleGly) | 5300 days
GlyArgGlnCysGly (GRQCG; printed: GlyArgGlnCysGly) | 1000 days
GlyLeuGlnGluGly (GLQEG; printed: GlyLeuGlnGluGly) | 7400 days
